Biological target: T1, Lin28A (GST-His6 fusion) (Homo sapiens, UniProt Q9H9Z2 1-209)
T1 sequence: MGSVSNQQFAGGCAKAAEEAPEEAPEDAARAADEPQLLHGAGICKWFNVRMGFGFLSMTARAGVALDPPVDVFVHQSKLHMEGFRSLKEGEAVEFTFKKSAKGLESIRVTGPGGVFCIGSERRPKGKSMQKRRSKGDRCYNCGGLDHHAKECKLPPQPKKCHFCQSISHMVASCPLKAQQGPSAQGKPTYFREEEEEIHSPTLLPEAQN
Assay: EMSA

B1: Motif1 bubble duplex (dsDNA)
DNA 1: CTTCTGGCGCTGTCCATCACAAGGTGCTGAACCCAG
DNA 2: CTGGGTTCAGCACCATTTTTTGCGCCAGAAG
  binding result: binds

Reference: article PMC4779955
